Laboratory results reported in US20180112008A1 (Memorial Sloan Kettering, published 2018).
Ends that are not written are not given here. * marks the point of attachment. GlcNAc2 = N-linked chitobiose, CC(=O)N[C@@H]1[C@@H](O)[C@H](O[C@@H]2O[C@H](CO)[C@@H](O)[C@H](O)[C@H]2NC(C)=O)[C@@H](CO)O[C@H]1*

T1: MUC16^c114 (human, capable of N-glycosylation at Asn1, Asn24 and Asn30 ; chain 1 pos 1, 24, 30: Asn capable of N-glycosylation on the transfected cells, written N)
T1 construct: The forward primer adds Met-Val before Asn1; also called MUC16^c114-GFP; SKOV3 MUC16^c114; not shown: hrGFP of the phrGFP II-C vector fused at the cytoplasmic carboxy-terminus, with its short cloning linker
T1 chain: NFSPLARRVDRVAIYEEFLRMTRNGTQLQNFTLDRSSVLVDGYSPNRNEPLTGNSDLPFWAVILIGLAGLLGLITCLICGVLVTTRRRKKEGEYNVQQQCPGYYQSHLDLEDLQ

T2: MUC16 nonglycosylated peptide 2 (human)
T2 construct: Peptide used to elicit the 4H11 antibody; also called nonglycosylated MUC16 peptide 2
T2 peptide: CTLDRSSVLVDGYSPNRNE

T3: MUC16 unrelated peptide 18mer
T3 construct: Negative control peptide without glycan
T3 peptide: GAVPRSATINVSRIATGP

T4: MUC16 unrelated peptide 18mer+GlcNAc2 (also: GlcNAc2 (chitobiose), site not given here)
T4 construct: Negative control glycopeptide; also called unrelated chitobiose-linked peptide
T4 peptide: GAVPRSATINVSRIATGP

T5: MUC16^c114-N2 (human, chain 1 pos 1 and pos 30: N-glycosylated Asn (cell-made glycans), written N)
T5 construct: MUC16^c114 with Asn24 (Asn1800) changed to Ala, on SKOV3 cells; also called N24 mut c114; SKOV3-N24 mutc114; not shown: hrGFP of the phrGFP II-C vector, fused at the cytoplasmic carboxy-terminus
T5 chain: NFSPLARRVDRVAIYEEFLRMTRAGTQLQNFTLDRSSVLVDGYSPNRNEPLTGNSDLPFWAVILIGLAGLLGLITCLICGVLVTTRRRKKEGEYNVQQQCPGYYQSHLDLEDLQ

T6: MUC16^c114 on SKOV3 cells with MGAT5 knock-down (human, N-glycans without MGAT5-dependent tetra-antennary branching ; chain 1 pos 1, 24 and 30: N-glycosylated Asn, written N; the glycans lack MGAT5-dependent tetra-antennary branching (shRNA knock-down))
T6 construct: Same polypeptide as MUC16^c114, other glycoform (shRNA against MGAT5); also called SKOV3-shMGAT5-c114; MUC16^c114-shMGAT5; not shown: hrGFP of the phrGFP II-C vector, fused at the cytoplasmic carboxy-terminus
T6 chain: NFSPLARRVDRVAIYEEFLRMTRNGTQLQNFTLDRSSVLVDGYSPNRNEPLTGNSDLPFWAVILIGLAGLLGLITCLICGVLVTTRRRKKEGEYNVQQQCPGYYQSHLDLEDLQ

T7: non-glycosylated 15-mer MUC16 peptide (human)
T7 construct: Same peptide as the GlcNAc2-15-mer without the glycan; also called unglycosylated 15-mer
T7 peptide: CGTQLQNFTLDRSSV

T8: MUC16 18mer (not fully specified)
T8 construct: also called non-glycosylated 18-mer MUC16 peptide
T8 peptide: CTRNGTQLQNFTLDRSSV

T9: MUC16 18mer + GlcNAc1 (also: N-linked single GlcNAc, Asn (N4, N10 or both) not given here)
T9 construct: also called 18-mer with a single GlcNAc
T9 peptide: CTRNGTQLQNFTLDRSSV

T10: (GlcNAc2)2-18-mer glycopeptide, unconjugated (human)
T10 construct: Used in ELISA without KLH; also called 18-mer(chitobiose)2[C-T22-V38]; 18mer-chitobiose peptide
T10 peptide: Ac-CTRN(GlcNAc2)GTQLQN(GlcNAc2)FTLDRSSV-NH2

T11: MUC16 18mer + GlcNAc2-FUCOSE1 (also: N-linked GlcNAc2Fuc (fucosylated chitobiose), Asn site not given here)
T11 construct: also called 18-mer with fucosylated chitobiose (GlcNAc2Fuc)
T11 peptide: CTRNGTQLQNFTLDRSSV

T12: MUC16 18mer + GlcNAc2-Trimannose (also: N-linked Man3GlcNAc2, Asn site not given here)
T12 construct: also called 18-mer with Man3GlcNAc2
T12 peptide: CTRNGTQLQNFTLDRSSV

T13: GlcNAc2-15-mer glycopeptide, unconjugated (human)
T13 construct: Cys plus G25-V38 of MUC16^c114; Used in ELISA without KLH; also called 15-mer(chitobiose)[C-G25-V38]; 15mer-chitobiose peptide
T13 peptide: Ac-CGTQLQN(GlcNAc2)FTLDRSSV-NH2

T14: biotinylated chitobiose-conjugated 18-mer glycopeptide (human, also: biotinylated, site not given here)
T14 construct: Cys plus T22-V38 of MUC16^c114; The range is derived from T22-V38 and the statement that c114 is 1777-1890; also called (GlcNAc2)2-18-mer, biotinylated; 18-mer(chitobiose)2[C-T22-V38]
T14 peptide: Ac-CTRN(GlcNAc2)GTQLQN(GlcNAc2)FTLDRSSV-NH2


Assays:
[1] = biological target: T1, MUC16^c114; experiment: FACS, SKOV3-c114
[2] = biological target: T2, MUC16 nonglycosylated peptide 2; experiment: sandwich ELISA
[3] = biological target: T3, MUC16 unrelated peptide 18mer; experiment: sandwich ELISA
[4] = biological target: T4, MUC16 unrelated peptide 18mer+GlcNAc2; experiment: sandwich ELISA
[5] = biological target: T5, MUC16^c114-N2; experiment: FACS, SKOV3-N24 mutc114
[6] = biological target: T6, MUC16^c114 on SKOV3 cells with MGAT5 …; experiment: FACS, SKOV3-shMGAT5-c114
[7] = biological target: T7, non-glycosylated 15-mer MUC16 peptide; experiment: sandwich ELISA on 'MUC16 15mer'; Blank 0.021
[8] = biological target: T8, MUC16 18mer; experiment: sandwich ELISA on 'MUC16 18mer'; Blank 0.032
[9] = biological target: T9, MUC16 18mer + GlcNAc1; experiment: sandwich ELISA on 'MUC16 18mer + GlcNAc1'; Blank 0.042
[10] = biological target: T10, (GlcNAc2)2-18-mer glycopeptide, …; experiment: sandwich ELISA on 'MUC16 18mer + GlcNAc2'; Blank 0.029
[11] = biological target: T11, MUC16 18mer + GlcNAc2-FUCOSE1; experiment: sandwich ELISA on 'MUC16 18mer + GlcNAc2-FUCOSE1'; Blank 0.044
[12] = biological target: T2, MUC16 nonglycosylated peptide 2; experiment: sandwich ELISA on 'MUC16 Nonglycosylated Peptide2'; Blank 0.029
[13] = biological target: T12, MUC16 18mer + GlcNAc2-Trimannose; experiment: sandwich ELISA on 'MUC16 18mer + GlcNAc2-Trimannose'; Blank 0.035
[14] = biological target: T7, non-glycosylated 15-mer MUC16 peptide; experiment: ELISA 12/24/13 (sups from time of freezing), dilution 400, column 15
[15] = biological target: T8, MUC16 18mer; experiment: ELISA 12/24/13 (sups from time of freezing), dilution 400, column 18
[16] = biological target: T13, GlcNAc2-15-mer glycopeptide, …; experiment: ELISA 12/24/13 (sups from time of freezing), dilution 400, column 15S
[17] = biological target: T10, (GlcNAc2)2-18-mer glycopeptide, …; experiment: ELISA 12/24/13 (sups from time of freezing), dilution 400, column 18S
[18] = biological target: T14, biotinylated chitobiose-conjugated …; experiment: BLI (Octet QK), biotinylated glycopeptide on streptavidin sensor, antibody 10 ug/mL, 1:1 model
Method: Binding affinity was determined using ForeBio Octet QK. 5 μg/mL of biotinylated chitobiose-conjugated 18-mer glycopeptide was loaded onto a streptavidin biosensor. After washing off excess antigen, mouse antibodies were tested at 10 μg/mL for association and dissociation steps, respectively. Binding parameters were calculated using 1:1 binding site model, partial fit.

| Binder | geometric mean phycoerythrin (PE) fluorescence [1] | binding result [2] | binding result [3] | binding result [4] | geometric mean phycoerythrin (PE) fluorescence [5] | geometric mean phycoerythrin (PE) fluorescence [6] | ELISA signal [7] | ELISA signal [8] | ELISA signal [9] | ELISA signal [10] | ELISA signal [11] | ELISA signal [12] | ELISA signal [13] | ELISA signal [14] | ELISA signal [15] | ELISA signal [16] | ELISA signal [17] | Kd [18] | koff [18] |
| --- | --- | --- | --- | --- | --- | --- | --- | --- | --- | --- | --- | --- | --- | --- | --- | --- | --- | --- | --- |
| 18C6.D12 (antibody, V domains shown, Mouse monoclonal from a hybridoma; also called MUC16 Glycosylation Antibody 18C6) VH: QVTLKESGPGILQPSQTLSLTCSFSGFSLSTVGMGVGWSRQPSGKGLEWLAHIWWDDEDKYYNPALKSRLTISKDTSKNQVFLKIANVDTADTATYYCTRIGTAQATDALDYWGQGTSVTVSS VL: DIVMTQAAPSVPVTPGESVSISCRSSKSLLHSNGNTYLYWFLQRPGQSPQRLIYYMSNLASGVPDRFSGRGSGTDFTLRISRVEAEDVGVYYCMQSLEYPLTFGGGTKLEIK | 2050 | no binding | no binding | no binding | 1830 | 855 | 1.06 | 1.01 | 0.95 | 1.06 | 1.03 | 0.02 | 0.89 | 0.44 | 0.45 | 0.14 | 0.55 | 11.1 nM | 0.000678 s⁻¹ |
| 19C11.H6 (antibody, V domains shown, Mouse monoclonal from a hybridoma; Used as 89Zr-DFO-labelled antibody in the internalization assay; also called MUC16 Glycosylation Antibody 19C11) VH: QVNLKESGPGKLQPSQTLSLTCSFSGFSLSTLGMGVGWIRQSSGKGLEWLAHIWWDDDKYYNPALKSRLTISRATSKNQVFLKIVNVGTADTATYYCARIGTAQATDALDYWGQGTSVTVSS VL: DIVMTQAAPSIPVTPGESVSISCRSSKSLLHSNGNTYLYWFLQRPGQSPQRLIYYMSNLASGVPDRFSGRGSGTDFTLKISRVEAGDVGVYYCMQGLEHPLTFGGGTKLEIK | 617 | no binding | no binding | no binding | 486 | 525 | 1.17 | 0.98 | 0.96 | 1.1 | 1.01 | 0.03 | 0.99 | 0.3 | 0.2 | 0.1 | 0.36 | 63.7 nM | 0.00242 s⁻¹ |
| 7B12.B3 (antibody, V domains shown, Mouse monoclonal from a hybridoma; also called MUC16 Glycosylation Antibody 7B12) VH: QVTLKESGPGILQPSQTLSLTCSFSGFSLSTVGMGVGWSRQPSGKGLEWLAHIWWDDEDKYYNPALKSRLTISKDTSKNQVFLKIANVDTADSATYYCTRIGTAQATDALDYWGQGTSVTVSS VL: DIVMTQAAPSVSVTPGESVSISCRSSKSLRKSNGNTYLYWFLQRPGQSPQRLIYYMSNLASGVPDRFSGRGSGTDFTLRISRVEAEDVGVYYCMQSLEYPLTFGGGTKLKIK | 492 | no binding | no binding | no binding | 471 | 289 | 1.21 | 1.09 | 1.03 | 1.06 | 1.1 | 0.02 | 1.05 | 0.44 | 0.33 | 0.25 | 0.51 | 13.8 nM | 0.00104 s⁻¹ |
